The source of these data is article PMC13108567, “Targeting PD-1^+ T cells with chimeric antigen receptors to reduce the HIV reservoir” (Science Advances, 2026).

This assay concerns the target T1, PD-1 biotinylated dimer (Homo sapiens, UniProt Q15116).
T1 construct: also called PD-1 dimer protein
Briefly: BLI. To be noted: both partners purified.

T1 sequence (Q15116 25-288): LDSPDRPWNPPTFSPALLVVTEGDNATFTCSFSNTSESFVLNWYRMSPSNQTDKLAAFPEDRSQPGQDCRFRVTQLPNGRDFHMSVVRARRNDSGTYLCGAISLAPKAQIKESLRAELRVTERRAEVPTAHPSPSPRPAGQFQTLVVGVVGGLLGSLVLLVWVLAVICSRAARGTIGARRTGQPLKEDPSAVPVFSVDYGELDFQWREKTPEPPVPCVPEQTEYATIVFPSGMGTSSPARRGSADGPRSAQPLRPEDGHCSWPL

B1: scFv-His of anti-PD-1 clone 135c139d6 (scFv, V domains shown)
VH: EVQLVQSGAEVKKPGESLKISCKGSGYSFTNFYIHWVRQAPGQRLEWMGSIYPNYGDTAYNQKFKDRFVFSLDTSVSTAYLQISSLKAEDTAVYYCARGYSYAMDYWGQGTTVTVSS
VL: DIQMTQSPSSVSASVGDRVTITCSASQGISGDLNWYQQKPGKAPKLLIYHTSSLHSGVPSRFSGSGSGTDFTLTISSLQPEDFATYYCQYYSKDLLTFGGGTKLEIK
notes: source: purified
Take B1: the “KD, fold lower than that of the scFv of clone A35” value was 4 times.
